Test results reported in the supplement of paper PMC7877785.
± gives the uncertainty stated by the source.

Assay: self-splicing fitness, log relative to wild type (ln ratio); higher = more splicing; Tetrahymena group I intron in knt gene, E. coli kanamycin selection, DiMSum; sequences stand for … in CUCUCU…GGAGGGAAAAGUUAUCAGGCAUGCACCUGGUAGCUAGUCUUUAAACCAAUAGAUUGCAUCGGUUUAAAAGGCAAGACCGUCAAAUUGCGGGAAAGGGGUCAACAGCCGUUCAGUACCAAGUCUCAGGGGAAACUUUGAGAUGGCCUUGCAAAGGGUAUGGUAAUAAGCUGACGGACAUGGUCCUAACCACGCAGCCAAGUCCUAAGUCAACAGAUCUUCUGUUGAUAUGGAUGCAGUUCACAGACUAAAUGUCGGUCGGGGAAGAUGUAUUCUUCUCAUAAGAUAUAGUCGGACCUCUCCUUAAUGGGAGCUAGCGGAUGAAGUGAUGCAACACUGGAGCCGCUGGGAACUAAUUUGUAUGCGAAAGUAUAUUGAUUAGUUUUGGAGUACUCGUGGUCG
How it was run: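 Pooled colonies went to amplicon sequencing on an Illumina HiSeq 2500 after six replicate transformations. The plates were LB agar with 100 μg/mL carbenicillin, 50 μM IPTG and 0.2% rhamnose, with or without 25 μg/mL kanamycin, incubated overnight at 37°C or 30°C. The E. coli BL21(DE3) library had all eight P1ex-region intron nucleotides randomised, the intron placed in the knt kanamycin-resistance gene on pET-22b(+). DiMSum fitness is the error-weighted combination of replicate fold changes, kanamycin against none, normalised to wild type.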

| Sequence | self-splicing fitness (ln) (30 °C) | self-splicing fitness (ln) (37 °C) |
| --- | --- | --- |
| GAGGAGCAAUAUUACGCGGA | -3.27 ± 0.4 | -2.76 ± 0.41 |
| GAGGAGCAAUAUUACGCGUA | -2.97 ± 0.27 | -1.6 ± 0.37 |
| GAGGAGCAAUAUUACGGCGA | -1.1 ± 0.23 | -0.687 ± 0.2 |
| GAGGAGCAAUAUUACGGCGG | -2.33 ± 0.2 | -1.7 ± 0.38 |
| GAGGAGCAAUAUUACGGGAG | -4.37 ± 0.29 | -3.63 ± 0.35 |
| GAGGAGCAAUAUUACGGGGU | -4.47 ± 0.34 | -2.64 ± 0.22 |
| GAGGAGCAAUAUUACGGUAA | -3.65 ± 0.37 | -2.22 ± 0.36 |
| GAGGAGCAAUAUUACGGUGC | -3.87 ± 0.28 | -2.32 ± 0.15 |
| GAGGAGCAAUAUUACGUAAG | -3.04 ± 0.27 | -2.13 ± 0.34 |
| GAGGAGCAAUAUUACGUAUG | -3.97 ± 0.47 | -2.83 ± 0.4 |
| GAGGAGCAAUAUUACGUGCC | -3.24 ± 0.26 | -2.41 ± 0.28 |
| GAGUAGCAAUAUUACGAAAU | -2.68 ± 0.21 | -1.37 ± 0.23 |
| GAGUAGCAAUAUUACGACGU | 0.156 ± 0.093 | 0.524 ± 0.11 |
| GAGUAGCAAUAUUACGACUA | 0.106 ± 0.14 | -0.537 ± 0.13 |
| GAGUAGCAAUAUUACGAGGA |  | -1.81 ± 0.4 |
| GAGUAGCAAUAUUACGAGUA | -1.92 ± 0.16 | -1.28 ± 0.17 |
| GAGUAGCAAUAUUACGAUAA | -2.41 ± 0.25 | -1.18 ± 0.2 |
| GAGUAGCAAUAUUACGCACA | -0.806 ± 0.14 | -0.0514 ± 0.18 |
| GAGUAGCAAUAUUACGCCAU | -2.49 ± 0.19 | -2.33 ± 0.31 |
| GAGUAGCAAUAUUACGCCUA | -1.21 ± 0.1 | -0.374 ± 0.11 |
| GAGUAGCAAUAUUACGCGAA |  | -0.658 ± 0.37 |
| GAGUAGCAAUAUUACGCUAG | -2.38 ± 0.18 | -0.481 ± 0.18 |
| GAGUAGCAAUAUUACGCUGA |  | -1.55 ± 0.39 |
| GAGUAGCAAUAUUACGGCAA | -1.84 ± 0.17 | -0.547 ± 0.18 |

| Sequence | self-splicing fitness (ln) (30 °C) | self-splicing fitness (ln) (37 °C) |
| --- | --- | --- |
| GAGUAGCAAUAUUACGGCAU | -0.177 ± 0.089 | 0.37 ± 0.11 |
| GAGUAGCAAUAUUACGGCUA | -1.11 ± 0.29 | -1.37 ± 0.31 |
| GAGUAGCAAUAUUACGGGAA | -2.33 ± 0.21 | -2.14 ± 0.19 |
| GAGUAGCAAUAUUACGGUGC | -1.19 ± 0.15 | 0.00945 ± 0.18 |
| GAGUAGCAAUAUUACGGUUG | -2.7 ± 0.2 | -1.06 ± 0.2 |
| GAGUAGCAAUAUUACGUGCA | -1.35 ± 0.14 | 0.558 ± 0.2 |
| GAGUAGCAAUAUUACGUGCG | -2.61 ± 0.17 | 0.0549 ± 0.13 |
| GAUAAGCAAUAUUACGAACG | -1.22 ± 0.14 | -0.754 ± 0.17 |
| GAUAAGCAAUAUUACGAAGC | -2.17 ± 0.28 | -0.18 ± 0.21 |
| GAUAAGCAAUAUUACGACAC | -0.403 ± 0.12 | 0.0901 ± 0.16 |
| GAUAAGCAAUAUUACGAGCC | -1.5 ± 0.17 | -1.27 ± 0.23 |
| GAUAAGCAAUAUUACGCACG | -1.16 ± 0.13 | -0.4 ± 0.17 |
| GAUAAGCAAUAUUACGCACU | -1.21 ± 0.16 | -0.284 ± 0.2 |
| GAUAAGCAAUAUUACGCCGA | -2.01 ± 0.18 | -1.14 ± 0.22 |
| GAUAAGCAAUAUUACGCGGC | -3.27 ± 0.26 | -1.13 ± 0.2 |
| GAUAAGCAAUAUUACGCUUC |  | -3.04 ± 0.29 |
| GAUAAGCAAUAUUACGGAGC | -3.95 ± 0.29 | -1.76 ± 0.19 |
| GAUAAGCAAUAUUACGGGGC | -2.96 ± 0.25 | -1.62 ± 0.18 |
| GAUAAGCAAUAUUACGGGUG | -1.09 ± 0.081 | -1.02 ± 0.099 |
| GAUAAGCAAUAUUACGGUAU | -2.17 ± 0.1 | -1.46 ± 0.12 |
| GAUAAGCAAUAUUACGUACA | -0.491 ± 0.15 | -0.262 ± 0.16 |
| GAUAAGCAAUAUUACGUAUG | -1.53 ± 0.11 | -1.37 ± 0.1 |
| GAUAAGCAAUAUUACGUGUU | -2.67 ± 0.17 | -2.18 ± 0.14 |
| GAUAAGCAAUAUUACGUUGC | -3.38 ± 0.15 | -2.3 ± 0.21 |
